Laboratory results from article PMC3250484, “Molecular Networks in FGF Signaling: Flotillin-1 and Cbl-Associated Protein Compete for the Binding to Fibroblast Growth Factor Receptor Substrate 2” (PLoS ONE, 2012).
One block for each binder: values may come before it.

Tests used:
Flot-1-CT-GST = molecular target: T1, Flot-1-CT-GST (Rattus norvegicus (Rat), UniProt Q9Z1E1); assay: GST pulldown
T1 chain: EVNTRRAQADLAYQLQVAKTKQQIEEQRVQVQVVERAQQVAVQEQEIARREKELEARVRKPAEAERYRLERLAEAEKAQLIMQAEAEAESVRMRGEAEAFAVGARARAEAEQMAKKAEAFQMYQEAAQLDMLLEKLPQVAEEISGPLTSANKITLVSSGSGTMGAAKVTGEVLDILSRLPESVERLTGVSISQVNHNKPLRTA

FL Flot-1-GST = molecular target: T2, FL Flot-1-GST (Rattus norvegicus (Rat), UniProt Q9Z1E1-1); assay: GST pulldown
T2 chain: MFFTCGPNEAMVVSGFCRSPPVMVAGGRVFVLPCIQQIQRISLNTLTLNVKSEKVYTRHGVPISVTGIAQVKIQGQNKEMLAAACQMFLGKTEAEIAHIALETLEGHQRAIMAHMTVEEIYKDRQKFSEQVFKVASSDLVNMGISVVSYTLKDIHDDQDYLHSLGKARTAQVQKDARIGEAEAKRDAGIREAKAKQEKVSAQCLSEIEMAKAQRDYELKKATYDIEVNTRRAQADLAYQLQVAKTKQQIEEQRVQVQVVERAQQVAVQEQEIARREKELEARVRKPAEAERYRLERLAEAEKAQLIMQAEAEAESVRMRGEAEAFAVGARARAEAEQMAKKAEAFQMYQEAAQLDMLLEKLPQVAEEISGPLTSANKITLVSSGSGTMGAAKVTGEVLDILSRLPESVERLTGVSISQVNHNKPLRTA

FRS2-His = molecular target: T3, FRS2-His (UniProt Q8WU20 1-508); assay: pull-down; GST fusion immobilised on sepharose beads, purified FRS2-His in solution; 5 µg of the purified proteins, on ice 3 h; wash 50 mM Tris-HCl pH 7.5, 150 mM NaCl, 1 mM EDTA, 1 mM DTT, 0.01% Triton X-100; anti-His blot; details: both partners purified
T3 construct: called one of the 'FL proteins' in the results; The vector pSCherry2 (Eurogentec) may add a Cherry carrier besides the His tag (surmise); also called His-tagged FRS2; purified FRS2-His; source: E. coli SE1, purified (Ni-NTA, dialysis)
T3 sequence (looked up): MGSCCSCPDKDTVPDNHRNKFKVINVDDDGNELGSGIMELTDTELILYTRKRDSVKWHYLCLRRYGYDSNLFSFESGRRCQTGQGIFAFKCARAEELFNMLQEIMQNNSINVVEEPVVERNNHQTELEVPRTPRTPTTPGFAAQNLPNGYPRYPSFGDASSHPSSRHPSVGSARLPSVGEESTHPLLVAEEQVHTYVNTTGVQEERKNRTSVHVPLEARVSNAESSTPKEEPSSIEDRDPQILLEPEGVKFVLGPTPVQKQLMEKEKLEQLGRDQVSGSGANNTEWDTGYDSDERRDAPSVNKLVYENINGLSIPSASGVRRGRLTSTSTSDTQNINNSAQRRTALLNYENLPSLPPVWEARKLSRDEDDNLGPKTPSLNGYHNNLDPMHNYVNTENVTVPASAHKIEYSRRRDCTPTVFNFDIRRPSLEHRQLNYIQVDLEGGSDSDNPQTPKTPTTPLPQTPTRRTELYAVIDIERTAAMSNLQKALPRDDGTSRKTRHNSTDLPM

binding result (Flot-1-CT-GST): binds
binding result (FL Flot-1-GST): binds
B1: FRS2-His (protein)
chain: T3 sequence (looked up)

binding result (FRS2-His): binds
B2: FL Flot-1-GST (natural protein, rat, UniProt Q9Z1E1-1 1-428, looked up)
chain: T2 chain
notes: Rat flotillin-1 in pET41a, full length; pET41a adds further N-terminal tags besides GST (surmise from the vector); also called flot-1-FL-GST
